Values of other authors in article PMC10035860.

Target: growth hormone receptor (Homo sapiens) (UniProt P10912)
UniProt P10912, sequence (P10912 19-638): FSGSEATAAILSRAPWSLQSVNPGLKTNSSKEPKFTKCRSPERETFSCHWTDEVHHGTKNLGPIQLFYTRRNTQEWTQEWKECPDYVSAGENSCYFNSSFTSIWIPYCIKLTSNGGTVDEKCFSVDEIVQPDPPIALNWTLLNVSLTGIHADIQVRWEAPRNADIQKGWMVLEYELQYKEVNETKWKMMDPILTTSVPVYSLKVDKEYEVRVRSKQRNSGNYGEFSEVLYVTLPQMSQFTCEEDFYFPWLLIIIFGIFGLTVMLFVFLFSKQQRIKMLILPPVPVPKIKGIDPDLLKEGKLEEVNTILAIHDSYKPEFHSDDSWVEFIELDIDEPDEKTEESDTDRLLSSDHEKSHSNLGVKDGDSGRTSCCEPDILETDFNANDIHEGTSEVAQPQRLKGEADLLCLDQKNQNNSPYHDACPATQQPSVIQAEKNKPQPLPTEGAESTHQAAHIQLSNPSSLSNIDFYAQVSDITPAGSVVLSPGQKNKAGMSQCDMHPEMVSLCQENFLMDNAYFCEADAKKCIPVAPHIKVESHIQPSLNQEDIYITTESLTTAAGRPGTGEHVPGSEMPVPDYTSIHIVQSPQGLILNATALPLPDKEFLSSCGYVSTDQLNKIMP

growth hormone, sequence (P01241 27-217): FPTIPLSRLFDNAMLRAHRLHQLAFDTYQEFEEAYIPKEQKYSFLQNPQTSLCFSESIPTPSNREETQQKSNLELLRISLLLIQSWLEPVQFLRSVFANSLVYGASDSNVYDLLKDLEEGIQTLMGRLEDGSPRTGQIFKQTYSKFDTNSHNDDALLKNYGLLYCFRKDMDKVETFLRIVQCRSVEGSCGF

Substance: growth hormone (from UniProt P01241)
- Kd: 0.3 nM
